The record followed here is the supplement of paper PMC10567573.

B1: APBB1IP (parent)
chain: PPEPLSQVSMWDQRWQDHQPLLPI
B2: RAB40B (parent)
chain: YSLTTSSTHKRSSLRKVKLVRPPQ
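Also: lentivirally expressed fusions sorted by FACS into six bins by GFP to DsRed ratio, PSI derived from sequencing read proportions per bin multiplied by bin number.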

The variants in the first data set derive from B1. Description: protein stability index of a GFP-peptide fusion (GPS, HEK-293T) (PSI 1-6); higher = more stable. As to conditions: c terminus: a fixed tail appended.
With PPAPLSQVSMWDQRWQDHQPLLPI [E3A], the protein stability index was 2.87.
Turning to PPDPLSQVSMWDQRWQDHQPLLPI [E3D], the protein stability index amounted to 3.34.
On the same count and under the same terms, in the case of PPLPLSQVSMWDQRWQDHQPLLPI [E3L] it was 3.07; in that of PPWPLSQVSMWDQRWQDHQPLLPI [E3W], 2.32.
As for PPSPLSQVSMWDQRWQDHQPLLPI [E3S], the protein stability index is 3.01.
As for PPNPLSQVSMWDQRWQDHQPLLPI [E3N], the protein stability index amounted to 3.56.
Same read-out and setting: in the case of PPVPLSQVSMWDQRWQDHQPLLPI [E3V] it was 3.46; in that of PPGPLSQVSMWDQRWQDHQPLLPI [E3G], 3.06.
For PPHPLSQVSMWDQRWQDHQPLLPI [E3H], the protein stability index was 2.74.
Same read-out and setting: in the case of PPKPLSQVSMWDQRWQDHQPLLPI [E3K] it was 3.84; in that of PPQPLSQVSMWDQRWQDHQPLLPI [E3Q], 2.77.
Still for that read-out and setting: in the case of PPFPLSQVSMWDQRWQDHQPLLPI [E3F] it was 2.4; in that of PPIPLSQVSMWDQRWQDHQPLLPI [E3I], 2.48; in that of PPCPLSQVSMWDQRWQDHQPLLPI [E3C], 2.48.
For PPYPLSQVSMWDQRWQDHQPLLPI [E3Y], the protein stability index came to 2.27.
Regarding PPMPLSQVSMWDQRWQDHQPLLPI [E3M], the protein stability index was determined as 2.94.
Consider PPRPLSQVSMWDQRWQDHQPLLPI [E3R], for which the protein stability index is 3.18.
On the same count and under the same terms, in the case of IPEPLSQVSMWDQRWQDHQPLLPI [P1I] it was 2.39.
The same measure, in the same setting: in the case of EPEPLSQVSMWDQRWQDHQPLLPI [P1E] it was 2.84.
Same read-out and setting: in the case of MPEPLSQVSMWDQRWQDHQPLLPI [P1M] it was 3.28.
As for KPEPLSQVSMWDQRWQDHQPLLPI [P1K], the protein stability index was determined as 2.73.
Consider VPEPLSQVSMWDQRWQDHQPLLPI [P1V], for which the protein stability index was 2.23.
NPEPLSQVSMWDQRWQDHQPLLPI [P1N]: the protein stability index was found to be 2.87.
Same read-out and setting: in the case of YPEPLSQVSMWDQRWQDHQPLLPI [P1Y] it was 1.72; in that of WPEPLSQVSMWDQRWQDHQPLLPI [P1W], 2.48.
Still for that read-out and setting: in the case of FPEPLSQVSMWDQRWQDHQPLLPI [P1F] it was 2.17; in that of RPEPLSQVSMWDQRWQDHQPLLPI [P1R], 2.54; in that of CPEPLSQVSMWDQRWQDHQPLLPI [P1C], 2.34.
For the variant HPEPLSQVSMWDQRWQDHQPLLPI [P1H], the protein stability index is 3.07.
Same read-out and setting: in the case of GPEPLSQVSMWDQRWQDHQPLLPI [P1G] it was 1.94; in that of DPEPLSQVSMWDQRWQDHQPLLPI [P1D], 3.31.
As for TPEPLSQVSMWDQRWQDHQPLLPI [P1T], the protein stability index was 3.37.
The same measure, in the same setting: in the case of APEPLSQVSMWDQRWQDHQPLLPI [P1A] it was 2.64; in that of SPEPLSQVSMWDQRWQDHQPLLPI [P1S], 2.87.
Still for that read-out and setting: in the case of QPEPLSQVSMWDQRWQDHQPLLPI [P1Q] it was 2.89.
In the case of LPEPLSQVSMWDQRWQDHQPLLPI [P1L], the protein stability index was determined as 2.02.
On the same count and under the same terms, in the case of PNEPLSQVSMWDQRWQDHQPLLPI [P2N] it was 3.09; in that of PYEPLSQVSMWDQRWQDHQPLLPI [P2Y], 2.46; in that of PVEPLSQVSMWDQRWQDHQPLLPI [P2V], 3.11.
Same read-out and setting: in the case of PCEPLSQVSMWDQRWQDHQPLLPI [P2C] it was 2.44; in that of PHEPLSQVSMWDQRWQDHQPLLPI [P2H], 2.65; in that of PGEPLSQVSMWDQRWQDHQPLLPI [P2G], 2.58.
Same read-out and setting: in the case of PKEPLSQVSMWDQRWQDHQPLLPI [P2K] it was 2.83.
For PEEPLSQVSMWDQRWQDHQPLLPI [P2E], the protein stability index came to 3.02.
The same measure, in the same setting: in the case of PIEPLSQVSMWDQRWQDHQPLLPI [P2I] it was 2.42; in that of PTEPLSQVSMWDQRWQDHQPLLPI [P2T], 2.69; in that of PDEPLSQVSMWDQRWQDHQPLLPI [P2D], 2.95.
Take PLEPLSQVSMWDQRWQDHQPLLPI [P2L]: the protein stability index came out at 2.09.
On the same count and under the same terms, in the case of PWEPLSQVSMWDQRWQDHQPLLPI [P2W] it was 2.07; in that of PREPLSQVSMWDQRWQDHQPLLPI [P2R], 2.5.
Regarding PQEPLSQVSMWDQRWQDHQPLLPI [P2Q], the protein stability index turned out to be 2.52.
The same measure, in the same setting: in the case of PFEPLSQVSMWDQRWQDHQPLLPI [P2F] it was 1.92; in that of PAEPLSQVSMWDQRWQDHQPLLPI [P2A], 2.71; in that of PMEPLSQVSMWDQRWQDHQPLLPI [P2M], 2.38.
Consider PSEPLSQVSMWDQRWQDHQPLLPI [P2S], for which the protein stability index is 2.83.
Same read-out and setting: in the case of PPEPESQVSMWDQRWQDHQPLLPI [L5E] it was 3.57; in that of PPEPHSQVSMWDQRWQDHQPLLPI [L5H], 3.54; in that of PPEPDSQVSMWDQRWQDHQPLLPI [L5D], 3.58.
Same read-out and setting: in the case of PPEPCSQVSMWDQRWQDHQPLLPI [L5C] it was 3.75.
Take PPEPGSQVSMWDQRWQDHQPLLPI [L5G]: the protein stability index was found to be 3.05.
Still for that read-out and setting: in the case of PPEPMSQVSMWDQRWQDHQPLLPI [L5M] it was 2.88; in that of PPEPKSQVSMWDQRWQDHQPLLPI [L5K], 2.71; in that of PPEPASQVSMWDQRWQDHQPLLPI [L5A], 3.74.
Still for that read-out and setting: in the case of PPEPFSQVSMWDQRWQDHQPLLPI [L5F] it was 3; in that of PPEPNSQVSMWDQRWQDHQPLLPI [L5N], 3.31.
Same read-out and setting: in the case of PPEPISQVSMWDQRWQDHQPLLPI [L5I] it was 2.72; in that of PPERLSQVSMWDQRWQDHQPLLPI [P4R], 2.55.
Turning to PPETLSQVSMWDQRWQDHQPLLPI [P4T], the protein stability index came to 3.1.
Take PPENLSQVSMWDQRWQDHQPLLPI [P4N]: the protein stability index was 2.93.
As for PPESLSQVSMWDQRWQDHQPLLPI [P4S], the protein stability index is 2.61.
Still for that read-out and setting: in the case of PPEYLSQVSMWDQRWQDHQPLLPI [P4Y] it was 2.87; in that of PPEMLSQVSMWDQRWQDHQPLLPI [P4M], 2.79; in that of PPEVLSQVSMWDQRWQDHQPLLPI [P4V], 2.61.
As for PPEHLSQVSMWDQRWQDHQPLLPI [P4H], the protein stability index stood at 3.22.
As for PPEKLSQVSMWDQRWQDHQPLLPI [P4K], the protein stability index was 2.55.
Regarding PPECLSQVSMWDQRWQDHQPLLPI [P4C], the protein stability index amounted to 2.51.
On the same count and under the same terms, in the case of PPEWLSQVSMWDQRWQDHQPLLPI [P4W] it was 2.3; in that of PPEDLSQVSMWDQRWQDHQPLLPI [P4D], 3.56.
On the same count and under the same terms, in the case of PPEILSQVSMWDQRWQDHQPLLPI [P4I] it was 2.52; in that of PPEFLSQVSMWDQRWQDHQPLLPI [P4F], 2.44; in that of PPEGLSQVSMWDQRWQDHQPLLPI [P4G], 2.79.
For the variant PPEQLSQVSMWDQRWQDHQPLLPI [P4Q], the protein stability index came out at 3.34.
Same read-out and setting: in the case of PPEALSQVSMWDQRWQDHQPLLPI [P4A] it was 3.05; in that of PPELLSQVSMWDQRWQDHQPLLPI [P4L], 2.54.
Same read-out and setting: in the case of PPEELSQVSMWDQRWQDHQPLLPI [P4E] it was 3.34.

The variants in the next data set derive from B2. The data set is described as above. Conditions: c terminus: a fixed tail appended.
As to YSLTTSSTHKRSSLRKVKLVREPQ [P22E], the protein stability index amounted to 3.5.
On the same count and under the same terms, in the case of YSLTTSSTHKRSSLRKVKLVRAPQ [P22A] it was 2.76.
Still for that read-out and setting: in the case of YSLTTSSTHKRSSLRKVKLVRRPQ [P22R] it was 3; in that of YSLTTSSTHKRSSLRKVKLVRYPQ [P22Y], 2.84; in that of YSLTTSSTHKRSSLRKVKLVRFPQ [P22F], 2.44.
Still for that read-out and setting: in the case of YSLTTSSTHKRSSLRKVKLVRWPQ [P22W] it was 1.94.
As for YSLTTSSTHKRSSLRKVKLVRMPQ [P22M], the protein stability index turned out to be 2.76.
Same read-out and setting: in the case of YSLTTSSTHKRSSLRKVKLVRDPQ [P22D] it was 3.39.
As to YSLTTSSTHKRSSLRKVKLVRIPQ [P22I], the protein stability index was found to be 2.27.
